Test results from US20160145322A1 (CRUCELL HOLLAND B V, published 2016).

Legend:
[1] = molecular target: T1, G protein of RSV A/Long (ATCC Cat. No. VR-26), on virus (Respiratory syncytial virus A/Long, UniProt P20895 1-298); assay: cell-based or functional assay
T1 sequence (looked up): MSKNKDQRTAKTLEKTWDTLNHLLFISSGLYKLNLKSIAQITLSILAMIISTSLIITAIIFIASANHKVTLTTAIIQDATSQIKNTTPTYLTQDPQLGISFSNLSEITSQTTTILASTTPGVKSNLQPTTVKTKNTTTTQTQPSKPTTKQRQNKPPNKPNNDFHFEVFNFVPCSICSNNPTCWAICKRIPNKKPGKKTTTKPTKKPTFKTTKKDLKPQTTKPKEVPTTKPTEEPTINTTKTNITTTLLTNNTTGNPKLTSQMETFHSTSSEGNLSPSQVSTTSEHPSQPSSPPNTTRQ

[2] = molecular target: G protein of RSV B/18537 (ATCC Cat. No. VR-1580), on virus (Respiratory syncytial virus B/18537); assay: cell-based or functional assay
[3] = molecular target: T2, Recombinant RSV attachment protein (G protein) corresponding to RSV B/B1 (Respiratory syncytial virus B/B1, UniProt O36633 65-299); assay: ELISA, coated recombinant protein
T2 construct: also called RSV Gb; Gb
T2 sequence: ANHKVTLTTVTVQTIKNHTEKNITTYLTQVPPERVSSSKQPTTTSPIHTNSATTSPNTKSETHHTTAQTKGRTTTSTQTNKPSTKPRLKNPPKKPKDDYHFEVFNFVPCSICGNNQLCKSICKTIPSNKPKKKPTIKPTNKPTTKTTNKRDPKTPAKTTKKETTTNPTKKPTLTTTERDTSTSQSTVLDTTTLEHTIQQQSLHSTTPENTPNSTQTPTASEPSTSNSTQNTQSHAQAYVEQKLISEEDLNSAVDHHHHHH

[4] = molecular target: T3, Sym-1705 (RSV-G type A central region peptide 145-201) (Respiratory syncytial virus type A, not fully specified; N-terminal biotin); assay: Octet Red384, streptavidin tips with biotinylated peptide
T3 construct: Synthetic peptide
T3 peptide: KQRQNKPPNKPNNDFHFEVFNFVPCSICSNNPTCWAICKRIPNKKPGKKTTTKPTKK

[5] = molecular target: T4, Sym-1706 (RSV G central conserved domain (CCD) peptide, type A 145-184) (Respiratory syncytial virus type A, N-terminal biotin); assay: as above
T4 construct: Synthetic peptide, C-terminally truncated against Sym-1705
T4 peptide: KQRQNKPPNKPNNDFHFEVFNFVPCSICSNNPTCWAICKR

[6] = molecular target: T5, Sym-1788 (RSV-G type B central region peptide 145-201) (Respiratory syncytial virus type B, N-terminal biotin); assay: as above
T5 construct: Synthetic peptide
T5 peptide: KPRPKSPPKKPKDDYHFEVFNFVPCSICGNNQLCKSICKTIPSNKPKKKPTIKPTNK

[7] = molecular target: T6, Sym-1789 (RSV-G type B central region peptide 145-184) (Respiratory syncytial virus type B, N-terminal biotin); assay: as above
T6 construct: Synthetic peptide, C-terminally truncated against Sym-1788
T6 peptide: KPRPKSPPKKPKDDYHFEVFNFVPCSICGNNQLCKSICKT

[8] = molecular target: T3, Sym-1705 (RSV-G type A central region …); assay: ELISA, antibody titrated on biotinylated peptide on avidin plate
[9] = molecular target: T4, Sym-1706 (RSV G central conserved …); assay: as above
[10] = molecular target: T5, Sym-1788 (RSV-G type B central region …); assay: as above
[11] = molecular target: T6, Sym-1789 (RSV-G type B central region …); assay: as above

B1: CB030.1 (antibody, V domains shown)
VH: QVQLVQSGAEMKRPGSSVKVSCKASGGTFSTFAINWVRQAPGQGFEWMGGVIPGFDSANYAQKFQGRLTMSADESTSTVYMELSSLRSDDTAVYYCAGNSGYCSGDSCAPNWGPGTLVTVSS
VL: DIVMTQSPLSLPVTPGEPASISCRSSQSLVHSNGYSYLDWYLQKPGQSPQLLIYLGSNRPSGVPDRFSGSGSGTDFTLKISRVEAEDVGVYFCMQNLQTPTFGGGTKVEIK
notes: Tested as human IgG from the pCP9-kappa vector
- Neutralization IC50, plaque reduction assay, RSV A/Long [1]: 0.037 µg/mL
- Neutralization IC50 (ng/mL), plaque reduction assay, RSV B/18537 [2]: 18.3 ng/mL
- binding result [3]: binds
- Binding (Octet) [RU] [4]: 0.47 RU
- Binding (Octet) [RU] [5]: 0.53 RU
- Binding (Octet) [RU] [6]: 0.73 RU
- Binding (Octet) [RU] [7]: 1.36 RU
- IC50 [8]: ~0.02 µg/mL
- IC50 [9]: ~0.02 µg/mL
- IC50 [10]: ~0.02 µg/mL
- IC50 [11]: ~0.02 µg/mL
